# Results published in publication PMC11889585, “Characterization of the putative yeast mitochondrial triacylglycerol lipase Tgl2” (The Journal of Biological Chemistry, 2025).
# B1: N terminally hemagglutinin (HA) tagged Tgl2 (natural protein, S. cerevisiae, UniProt P54857 1-326, looked up)
# chain: MKNDNKANDIIIDSVKVPDSYKPPKNPIVFCHGLSGFDKLILIPSVFHLTNLISNSIVHNMAENFMQDDEDKSDNKYTNLLEIEYWIGVKKFLQSKGCTVITTKVPGFGSIEERAMALDAQLQKEVKKIESKDKRHSLNLIAHSMGGLDCRYLICNIKNRNYDILSLTTISTPHRGSEMADYVVDLFENLNALRVSQKILPICFYQLTTAYMKYFNLVTPNSPKVSYFSYGCSFVPKWYNVFCTPWKIVYERSKGCPNDGLVTINSSKWGEYRGTLKDMDHLDVINWKNKLQDDWSKFFRTTTVGEKVDILNFYLKITDDLARKGF
# notes: Tgl2, putative mitochondrial triacylglycerol lipase of the intermembrane space, S. cerevisiae; also called HA-Tgl2; native-like HA-Tgl2; source: S. cerevisiae (tgl2Δ, yme1Δ and other deletion strains), overexpressed from plasmid pYX142; in whole cell lysate, crude or isolated mitochondria; not shown: HA, N-terminal, kept
# Biological target: T1, N terminally FLAG-tagged Tgl2 (S. cerevisiae, UniProt P54857 1-326)
# T1 construct: Tgl2, S. cerevisiae; FLAG tag inserted at the N terminus of the ORF of Tgl2; the printed primer puts Met-FLAG directly before the second codon (AAA) of Tgl2; also called FLAG-Tgl2; source: S. cerevisiae tgl2Δ cells, coexpressed with HA-Tgl2 from plasmid pYX122; in solubilised mitochondria; not shown: FLAG, N-terminal, kept
# T1 sequence (looked up): B1 chain
# Experiment: native gel or EMSA; antibody shift assay: digitonin-solubilised mitochondria with HA-Tgl2 and FLAG-Tgl2 incubated with 0, 0.5 or 1 μl anti-HA antibody on ice for 30 min, BN-PAGE, immunodecoration with anti-FLAG
# Settings: partners not purified
binder,measurement,value
B1,stoichiometry N,≥ 2
